Here are results for 1 molecule from patent publication US20140178332A1 (published 2014).

For orientation: Kd means a measure of binding affinity in units of concentration. By koff is commonly meant a measure of how fast the partners let go of each other. The kon is a measure of how fast the partners come together. For orientation: IC50 means the concentration at which inhibition is half-maximal.

Experiment [1] has as its target T1, recombinant purified human IL-12 p70 (human, UniProt P29459 23-219).
T1 construct: Disulfide-linked heterodimer of p35 and p40; also called hIL-12; Hu IL-12
T1 sequence 1: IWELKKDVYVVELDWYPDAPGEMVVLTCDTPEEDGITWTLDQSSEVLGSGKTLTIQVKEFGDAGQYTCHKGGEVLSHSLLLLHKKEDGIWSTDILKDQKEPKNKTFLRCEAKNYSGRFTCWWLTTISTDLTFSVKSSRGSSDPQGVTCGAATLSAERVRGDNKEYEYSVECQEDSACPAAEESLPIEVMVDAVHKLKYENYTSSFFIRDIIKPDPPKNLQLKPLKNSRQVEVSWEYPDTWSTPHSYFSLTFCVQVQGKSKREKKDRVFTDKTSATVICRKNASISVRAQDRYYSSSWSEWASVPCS
T1 sequence 2: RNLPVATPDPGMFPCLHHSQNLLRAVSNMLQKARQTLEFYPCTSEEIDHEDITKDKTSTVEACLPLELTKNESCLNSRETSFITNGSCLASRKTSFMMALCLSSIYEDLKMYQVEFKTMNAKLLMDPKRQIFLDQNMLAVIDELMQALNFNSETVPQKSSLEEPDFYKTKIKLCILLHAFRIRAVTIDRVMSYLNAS
Description: SPR (Biacore), mAb captured on anti-mouse IgG Fc, IL-12 p70 as analyte. As to the method: The BIACORE assay (Biacore, Inc, Piscataway, N.J.) determines the affinity of antibodies with kinetic measurements of on-, off-rate constants. Binding of antibodies to recombinant purified human IL-12 p70 or recombinant purified human IL-12 p40 were determined by surface plasmon resonance-based measurements with a Biacore® 3000 instrument (Biacore® AB, Uppsala, Sweden) using running HBS-EP (10 mM HEPES [pH 7.4], 150 mM NaCl, 3 mM EDTA, and 0.005% surfactant P20) at 25° C. All chemicals were obtained from Biacore® AB (Uppsala, Sweden) or otherwise from a different source as described in the text. Approximately 5000 RU of goat anti-mouse IgG, (Fcγ), fragment specific polyclonal antibody (Pierce Biotechnology Inc, Rockford, Ill.) diluted in 10 mM sodium acetate (pH 4.5) was directly immobilized across a CM5 research grade biosensor chip using a standard amine coupling kit according to manufacturer's instructions and procedures at 25 μg/ml. Unreacted moieties on the biosensor surface were blocked with ethanolamine. Modified carboxymethyl dextran surface in flowcell 2 and 4 was used as a reaction surface. Unmodified carboxymethyl dextran without goat anti-mouse IgG in flow cell 1 and 3 was used as the reference surface. For kinetic analysis, rate equations derived from the 1:1 Langmuir binding model were fitted simultaneously to association and dissociation phases of all eight injections (using global fit analysis) with the use of Biaevaluation 4.0.1 software. Purified antibodies were diluted in HEPES-buffered saline for capture across goat anti-mouse IgG specific reaction surfaces. Mouse antibodies to be captured as a ligand (25 μg/ml) were injected over reaction matrices at a flow rate of 5 μl/min. The association and dissociation rate constants, kₒₙ (unit M⁻¹ s⁻¹) and koff (unit s⁻¹) were determined under a continuous flow rate of 25 μl/min. Rate constants were derived by making kinetic binding measurements at ten different antigen concentrations ranging from 10-200 nM. The equilibrium dissociation constant (unit M) of the reaction between mouse antibodies and recombinant purified human IL-12 p70 or recombinant purified human IL-12 p40 was then calculated from the kinetic rate constants by the following formula: KD=koff/kₒₙ. Binding is recorded as a function of time and kinetic rate constants are calculated.
For orientation: Surface plasmon resonance follows binding to a sensor surface in real time, without labels.

The target in experiment [2] is T1, recombinant purified human IL-12 p70. Description: competition ELISA on coated human IL-12, competitor of 0.8 µg/ml biotinylated 8E1, Expt. 2. As to the method:
MaxiSorp ELISA plates (Nalge Nunc International) were coated overnight at 4° C. with 100 μl/well of 1.0 μg/ml human IL-12 in 0.2 M sodium carbonate-bicarbonate buffer, pH 9.4, washed with Wash Buffer (PBS containing 0.1% Tween 20), and blocked for 1 hr at room temperature with 300 μl/well of SuperBlock Blocking Buffer in TBS (Pierce Chemical Company). After washing with Wash Buffer, a mixture of biotinylated 8E 1 ([…] final concentration) and competitor antibody (8E1 or 8E1.4 or 8E1.5 or 8E1.6) starting at 100 μg/ml final concentration and serially diluted 3-fold) in 100 μl/well of ELISA buffer was added in duplicate. As isotype controls, 100 μl/well of 100 μg/ml mouse IgG 1/κ (MuFd79) or humanized IgG1/κ (HuFd79) monoclonal antibodies in ELISA buffer was used. As a no-competitor control, 100 μl/well of ELISA Buffer was used. After incubating the plates for 1 hr at room temperature, and washing with Wash Buffer, bound antibodies were detected using 100 μl/well of 1 μg/ml HRP-conjugated streptavidin (Pierce Chemical Company) in ELISA buffer. After incubating for 1 hr at room temperature, and washing with Wash Buffer, color development was performed by adding 100 μl/well of ABTS Peroxidase Substrate/Peroxidase Solution B (KPL, Inc.). […] Absorbance was read at 415 nm.
The affinity of 8E1.4, 8E1.5 and 8E1.6 to human IL-12 was analyzed by competition ELISA as described above.

Experiment [3] has as its target T2, recombinant purified cyno IL-12 p70 (cynomolgus monkey).
T2 chain 1: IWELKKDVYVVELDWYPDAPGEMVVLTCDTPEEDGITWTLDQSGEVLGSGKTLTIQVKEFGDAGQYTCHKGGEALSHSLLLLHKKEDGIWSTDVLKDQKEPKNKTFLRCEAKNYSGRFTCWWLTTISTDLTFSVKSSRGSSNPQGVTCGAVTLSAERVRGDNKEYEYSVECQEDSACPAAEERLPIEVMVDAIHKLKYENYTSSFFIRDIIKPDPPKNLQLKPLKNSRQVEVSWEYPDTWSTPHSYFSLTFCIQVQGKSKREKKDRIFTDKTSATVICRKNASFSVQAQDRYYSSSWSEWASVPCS
T2 chain 2: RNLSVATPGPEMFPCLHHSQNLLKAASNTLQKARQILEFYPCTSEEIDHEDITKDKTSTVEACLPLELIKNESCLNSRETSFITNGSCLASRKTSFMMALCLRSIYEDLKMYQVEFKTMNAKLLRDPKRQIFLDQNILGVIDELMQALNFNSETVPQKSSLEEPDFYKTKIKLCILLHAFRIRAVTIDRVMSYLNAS
Description: cell-based or functional assay.

Experiment [4] has as its target T1, recombinant purified human IL-12 p70. Description: cell-based or functional assay.

B1: murine anti-human IL-12p40 monoclonal antibody 8E1 (antibody, V domains shown)
VH: EVKLVESGGGLVQPGGSRKLSCAASGFTFSDYGMVWVRQAPGKGLEWVASISSGSSNIYYADTVKGRFTISRDDPNNTLFLQMRSLRSEDTAMYYCARNPYWGQGTTLTVSS
VL: DIVMTQSQKFMSTSVGDRVSVTCKASQNVGTNVAWYQQKPGQSPKGLIYSASHRYSGVPDRFAGSGSGTDFTLTISNVQSEDLAEYFCQQYNSYPLTFGGGTKLELKR
notes: Murine mAb; also called biotinylated 8E1
B1: in experiment [1], the dissociation constant (Kd) came out at 0.074 nM, the off-rate (koff) amounted to 5.1e-05 s⁻¹ and the on-rate (kon) came out at 690000 M⁻¹ s⁻¹. Further, the IC50 in experiment [2] amounted to 2.78 µg/mL. Further, the “Average IC50 (nM) Cyno IL-12, PHA blast IFN-γ assay” value in experiment [3] came to 0.18 nM. For the same molecule, in experiment [4], the “Average IC50 (nM) Human IL-12, PHA blast IFN-γ assay” value is 0.19 nM.
